{"source": "patent US9896489B2", "about": "“Family of synthetic polynucleotide-binding peptides and uses thereof” (Eastern Virginia Medical School, priority 2012, dated 2018)", "molecules": {"B1": {"name": "novel synthetic Purα agonist peptide, 89 aa, SEQ ID NO: 1, with cell transport sequence YARAKRRQARRQIR (peptide)", "chain": "LASTFVTRDNKRYFMDLKENQRGRFMRVSQVGTRGYRNSLTVSYSVAWLEFRTHLCKLIDEYAKLQYARAKRRQARRQIRQQQQQQQEE"}}, "key": {"[1]": {"system": "H82 SCLC cells", "experiment": "H82 SCLC cell growth, hemocytometer cell counts", "assay_type": "cell-based", "settings": "10^−12 M peptide", "procedure": "(§1) The peptide was tested against SCLC cells in culture. The cell lines included H82, H146, and controls. The H82 cell line has amplified c-MYC genes and H146 has increased levels of expression of c-MYC. The controls were normal epithelial cells and HeLa cells (a cervical cancer cell line with no known changes in c-MYC).\nH82 SCLC cells were grown in suspension in small cell culture wells in RPMI medium with 10% fetal bovine serum. At time 0, the TZIP peptide was added to the medium at a final concentration of 10^−12 M. Control cells received no peptide. The TZIP peptide was added as a stock solution of 200 μg in 200 μL of deionized water."}, "[2]": {"system": "H82 cells", "settings": "H82 cells treated with TZIP peptide as for cell counts", "procedure": "Referring to FIG. 7, a subset of H82 cells was treated with the TZIP peptide and the dye trypan blue, which is excluded from live cells. The H82 cells were otherwise treated as previously described and H82 cells used as a control were untreated. The percentages of living cells are represented by solid lines, and the percentages of dead cells are represented by dotted lines."}, "[3]": {"system": "HeLa cells", "experiment": "HeLa cell growth, hemocytometer cell counts", "assay_type": "cell-based", "settings": "treated as described for H82 cells", "procedure": "This was expected based on the lack of changes in c-MYC in HeLa cell lines. HeLa cells were grown in suspension and either treated or untreated with the TZIP peptide as described above for the H82 cells. Points were taken at different times post treatment, and cells were counted using a hemocytometer. […] This difference was expected, as HeLa cells differ from SCLC cells in many aspects of tumor suppressor gene products and presence of oncogenes."}, "[4]": {"system": "SCLC cells", "experiment": "Growth of SCLC cell lines treated with TZIP peptide", "assay_type": "cell-based", "procedure": "as §1"}, "[5]": {"system": "human prostate cancer cell lines", "experiment": "Growth of prostate cancer cells treated with TZIP peptide", "assay_type": "cell-based"}, "[6]": {"system": "normal human epithelial cells", "experiment": "Growth of normal epithelial cells treated with TZIP peptide", "assay_type": "cell-based"}, "[7]": {"system": "Tat transactivation of the HIV-1 LTR", "experiment": "Tat transactivation of HIV-1 LTR-luciferase in U-87 MG cells", "assay_type": "cell-based", "settings": "peptide added exogenously to the medium; clade B LTR and Tat", "procedure": "The TZIP peptide's effect on Tat's ability to transactivate the HIV-1 LTR was tested. In this experiment, U-87 MG cells were transfected with the clade B HIV-1 LTR coupled to luciferase. They were also transfected to express Tat, clade B. In the absence of Tat transfection there is no luciferase activity. […] The results in FIG. 9B document inhibition of the HIV-1 LTR at low concentrations of peptide, levels which would be acceptable in humans."}, "[8]": {"system": "U-87 MG cells", "assay_type": "cell-based"}, "[9]": {"system": "KG-1C cells", "assay_type": "cell-based"}, "[10]": {"system": "ALS ssDNA (GGGGCC hexanucleotide repeat expanded at C9ORF72)", "experiment": "Electrophoretic mobility shift assay with ALS ssDNA", "assay_type": "binding", "procedure": "Infrared oligonucleotides representing a GGGGCC hexanucleotide repeat expanded at C9ORF72 in ALS patients were custom ordered and are referred to as ALS ssDNA. 4% polyacrylamide gel electrophoresis was performed using IR-labeled oligonucleotides and imaged using the Li-Cor Odyssey IR imaging instrumentation and software.\nElectrophoretic Mobility Shift Assay-Various combinations of Purα, Purβ, TZIP, and IR-labeled oligonucleotides were prepared in the 5× Johnson binding buffer (Bergemann, Andrew D and Johnson, Edward M (1992), The HeLa Pur Factor Binds Single-Stranded DNA at a Specific Element Conserved in Gene Flanking Regions and Origins of DNA Replication. Molecular and Cellular Biology, vol 12:3 (1257-1265), incorporated by reference herein in its entirety), adjusted to 5 mM DTT, 5 mM EDTA, and 0.5% Tween 20. 4% polyacrylamide gel electrophoresis was performed on samples and imaged with the Li-Cor Odyssey instrumentation and software. Densitometry was performed on the DNA concentration course experiments using the Li-Cor Odyssey software.\nA Kd value obtained for Purβ was complex and not readily interpretable."}, "[11]": {"system": "FXS ssDNA (G-rich trinucleotide DNA repeats at FMR1)", "experiment": "Electrophoretic mobility shift assay with FXS ssDNA", "assay_type": "binding", "from_the_text": "A GE Microspin GST purification module was used to purify GST-tagged Purα and Purβ from bacterial lysate. Polyacrylamide gel electrophoresis with SDS-Page gels and molecular markers were used to verify that GST, Purα, and Purβ were expressed and purified. Expressed proteins were detected using antibodies against Purα and Purβ, including monoclonal mouse anti-Pur antibody developed in Johnson laboratory (clone 10B12) and polyclonal antibody against Purβ (Abcam). Polyacrylamide gel electrophoresis with TBE buffer was used for gel-mobility shift assay. Infrared-labeled oligonucleotides representing G-rich trinucleotide DNA repeats at FMR1 in patients with Fragile X Syndrome (FXS) were custom ordered and are referred to herein as FXS ssDNA. Infrared-labeled oligonucleotide substrates in agarose and polyacrylamide gels were detected through the use of the Odyssey (LICOR) instrumentation and software. […] When Purα and Purβ are combined (FIG. 17), by increasing the amount of Purβ, the DNA is shifted more to the top of the gel. Therefore, there is more binding of the proteins to the DNA. […] In FIG. 19, TZIP enhances the mobility shift of ssDNA FXS in the presence of Purα."}}}
{"molecule": "B1", "values": [{"measurement": "growth of treated cells (cell counts)", "setting": "[1]; after three days", "value": "no further growth of the treated cancer cells was evident"}, {"measurement": "growth inhibition (cell counts)", "setting": "[1]; one day post treatment", "value": "inhibitory effects of the peptide were evident"}, {"measurement": "cell killing (living/dead cells, trypan blue)", "setting": "[2]", "value": "killed TZIP-treated H82 cells"}, {"measurement": "effect on cell growth", "setting": "[3]", "value": "little effect on the growth of HeLa cells"}, {"measurement": "inhibitory effect on growth, compared with other cell types", "setting": "[4]", "value": "consistently showed the greatest inhibitory effects"}, {"measurement": "growth inhibition", "setting": "[5]", "value": "effective at inhibiting growth of prostate cancer cells"}, {"measurement": "effect of treatment on normal cells", "setting": "[6]", "value": "did not show any significant effects"}, {"measurement": "inhibition of Tat transactivation (luciferase)", "setting": "[7]", "value": "transactivation is inhibited over a broad range of low concentrations"}, {"measurement": "effects on growth kinetics or morphology", "setting": "[8]", "value": "did not display any effects on growth kinetics or morphology"}, {"measurement": "effects on growth kinetics or morphology", "setting": "[9]", "value": "did not display any effects on growth kinetics or morphology"}, {"measurement": "binding of ALS repeat (qualitative)", "setting": "[10]; DNA concentration courses", "value": "strongly bind the ALS repeat in low concentrations"}, {"measurement": "effect of TZIP on Purα binding to ALS ssDNA", "setting": "[10]; Purα and TZIP mixed", "value": "alter the binding activity of Purα"}, {"measurement": "effect of TZIP on Purβ binding to ALS hexanucleotide repeat", "setting": "[10]; Purβ and TZIP mixed", "value": "greatly stimulates binding of Purβ"}, {"measurement": "Kd", "setting": "[10]; densitometry of DNA concentration course", "value": 0.55, "unit": "nM"}, {"measurement": "concentration at which TZIP functions cooperatively with Purα to enhance binding to the GGGGCC repeat", "setting": "[10]; with Purα", "value": "less than 1 μM"}, {"measurement": "binding / mobility shift of ssDNA FXS (qualitative)", "setting": "[11]", "value": "tightly binds the FXS trinucleotide expanded repeat"}, {"measurement": "order of binding ssDNA FXS", "setting": "[11]", "value": "TZIP>Purα>Purβ"}, {"measurement": "effect of TZIP on Purα binding to ssDNA FXS", "setting": "[11]; in the presence of Purα", "value": "greatly stimulates Purα binding"}]}
